Where two headings read alike, the source gives them in different places. Ends that are not written are not given here. * marks the point of attachment. Butanoyl(4-N3) = [N-]=[N+]=NCCCC(=O)*; Pent4ynoyl = C#CCCC(=O)*
Tests used:
[1] = target: T1, prostate-specific membrane antigen (PSMA), dimeric form (UniProt Q04609 44-750, limits assumed); assay: electrochemical impedance spectroscopy, virus-PEDOT film, Hill fit of ΔR/Ro against PSMA concentration; phage-2 alone, not wrapped with KCS-1
T1 construct: Purified protein, construct not described; also called dimeric PSMA
Experimental: (§1) Biosensing with Virus-PEDOT Films. To explore whether these wrapped virus particles could be exploited to create virus-electrode biosensors with a higher sensitivity for PSMA, films of PEDOT were prepared on gold electrodes by electropolymerization in the presence of phage-2 (FIG. 2B). The PEDOT films formed in solution during electropolymerization associate with the negatively charged perchlorate ions from the electrolyte solution as it is deposited onto the gold electrode.[30] Polymerization of EDOT in the presence of negatively charged phage particles leads to incorporation of virus particles into the polymeric film as counterion dopants due to electrostatic interactions.[21] […] SEM imaging confirms incorporation of phage into the bioaffinity matrix; both filament-like and less extended features having dimensions consistent with phage integrated as rope-like bundles into the polymer at various angles to the film (FIGS. 4B-4C) were observed. The $KCS$-1 wrapper was then applied in vitro simply by exposing the resultant phage-2 film for a short time to an aqueous solution of the wrapper. For the biosensing measurements, only the highest affinity ligand combination of phage-2 wrapped with $KCS$-1 was used, and it was studied in comparison to phage-2 films.
(§2) where $Y=\Delta R/R_o$, [L] is the ligand concentration, and n is the Hill coefficient.[31] […]

[2] = target: T1, prostate-specific membrane antigen …; assay: phage ELISA, PSMA dimer coated on the plate, [PSMA] = 11.1 nM, phage titrated, anti-M13-HRP detection
Experimental: (§3) In a phage-based ELISA, specific wells of a 96-well microtiter plate (Nunc Maxisorp) were coated with 100 µL/well of a solution of PSMA (5.56 or 11.1 nM) monomer or dimer protein diluted in PBS. The plate was incubated for 1 h on a shaker at room temperature. The coating solution was removed, and the wells were blocked with 320 µL/well of 0.2% w/v solution of BSA in PBS for 30 min, and washed three times with 300 µL/well of wash buffer PT (0.05% TWEEN-20 in PBS). […] The wells on the ELISA plate were then incubated with the phage samples (100 µL/well) for 1 h. The wells were washed five times with PT and then incubated with horseradish-peroxidase-conjugated anti-M13 antibody (100 µL/well, 1:5000 dilution in PBT) for 30 min. The wells were washed three times with PT, and two times with PBS. The plate was then developed by incubating with HRP substrate solution (100 µL/well; 1 mg/mL o-phenylenediamine dihydrochloride and 0.02% w/v H_2O_2) in citric acid buffer (50 mM citric acid, 50 mM Na_2HPO_4, pH 5.0). Following an appropriate incubation time, HRP activity was measured spectrophotometrically at 450 nm using a microtiter plate reader (Bio-Tek).

bovine serum albumin [3] = target: T2, bovine serum albumin (bovine, UniProt P02769 25-607); assay: phage ELISA on BSA, anti-M13-HRP detection
T2 construct: also called BSA

[4] = target: T1, prostate-specific membrane antigen …; assay: phage-based wrapping ELISA, PSMA dimer coated (FIG. 3A)
Experimental: as §3, with “The plate was then developed by incubating with HRP substrate solution (100 µL/well; 1 mg/mL o-phenylenediamine dihydrochloride and 0.02% w/v H_2O_2) in citric acid buffer (50 mM citric acid, 50 mM Na_2HPO_4, pH 5.0).” left out
(§4) Phage-based wrapping ELISA: Phage (5 nM in 225 µL) and 2 µL of the purified cycloaddition reaction product, $KCS$-1/2 (308.7 µM) in water: acetonitrile (60:40), were mixed and serially diluted in PBT. […] Levels of phage binding were quantified as described above.

bovine serum albumin [5] = target: T2, bovine serum albumin; assay: phage-wrapping ELISA on BSA, anti-M13-HRP detection
bovine serum albumin [6] = target: T2, bovine serum albumin; assay: as above; remark: listed apart in the source
[7] = target: T1, prostate-specific membrane antigen …; assay: electrochemical impedance spectroscopy, virus-PEDOT film, Hill fit of ΔR/Ro against PSMA concentration; phage-2 wrapped with KCS-1
Experimental: as §1, §2

transferrin receptor = target: T3, transferrin receptor (UniProt P02786 89-760, limits assumed); assay: electrochemical impedance of a virus-PEDOT film in PBF-Tween after exposure to TfR, ΔR/Ro against frequency; concentration not given
T3 construct: Alternative target used as specificity control in impedance sensing; also called TfR

[8] = target: T1, prostate-specific membrane antigen …; assay: phage-based wrapping ELISA, PSMA dimer coated (FIG. 3C)
Experimental: as §3, with “The plate was then developed by incubating with HRP substrate solution (100 µL/well; 1 mg/mL o-phenylenediamine dihydrochloride and 0.02% w/v H_2O_2) in citric acid buffer (50 mM citric acid, 50 mM Na_2HPO_4, pH 5.0).” left out
as §4

[9] = target: T1, prostate-specific membrane antigen …; assay: electrochemical impedance spectroscopy, virus-PEDOT film, PBF-TWEEN buffer (FIG. 4F)
[10] = target: T4, PSMA on the surface of LNCaP cells (human, UniProt Q04609 1-750); assay: cell-based phage ELISA on fixed LNCaP cells, anti-M13-HRP detection, HRP activity as fold change
T4 construct: whole, on cells; Cells were glutaraldehyde-fixed on the plate in the cell-based ELISA and in suspension in the sandwich ELISA; also called cell surface PSMA; PSMA on LNCaP cells

[11] = target: T4, PSMA on the surface of LNCaP cells; assay: as above; remark: listed apart in the source
[12] = target: T5, prostate-specific membrane antigen (PSMA), monomeric form (UniProt Q04609 44-750, limits assumed); assay: phage ELISA, PSMA monomer coated on the plate, [PSMA] = 11.1 nM, anti-M13-HRP detection
T5 construct: Purified protein coated on the ELISA plate; construct not described
Experimental: as §3

[13] = target: T1, prostate-specific membrane antigen …; assay: electrochemical impedance of a virus-PEDOT film in PBF-Tween after exposure to PSMA, ΔR/Ro against frequency; concentration not given
[14] = target: T1, prostate-specific membrane antigen …; assay: phage ELISA, PSMA coated on the plate, [PSMA] = 13 nM, anti-M13-HRP detection

T1 sequence (Q04609 44-750 limits assumed): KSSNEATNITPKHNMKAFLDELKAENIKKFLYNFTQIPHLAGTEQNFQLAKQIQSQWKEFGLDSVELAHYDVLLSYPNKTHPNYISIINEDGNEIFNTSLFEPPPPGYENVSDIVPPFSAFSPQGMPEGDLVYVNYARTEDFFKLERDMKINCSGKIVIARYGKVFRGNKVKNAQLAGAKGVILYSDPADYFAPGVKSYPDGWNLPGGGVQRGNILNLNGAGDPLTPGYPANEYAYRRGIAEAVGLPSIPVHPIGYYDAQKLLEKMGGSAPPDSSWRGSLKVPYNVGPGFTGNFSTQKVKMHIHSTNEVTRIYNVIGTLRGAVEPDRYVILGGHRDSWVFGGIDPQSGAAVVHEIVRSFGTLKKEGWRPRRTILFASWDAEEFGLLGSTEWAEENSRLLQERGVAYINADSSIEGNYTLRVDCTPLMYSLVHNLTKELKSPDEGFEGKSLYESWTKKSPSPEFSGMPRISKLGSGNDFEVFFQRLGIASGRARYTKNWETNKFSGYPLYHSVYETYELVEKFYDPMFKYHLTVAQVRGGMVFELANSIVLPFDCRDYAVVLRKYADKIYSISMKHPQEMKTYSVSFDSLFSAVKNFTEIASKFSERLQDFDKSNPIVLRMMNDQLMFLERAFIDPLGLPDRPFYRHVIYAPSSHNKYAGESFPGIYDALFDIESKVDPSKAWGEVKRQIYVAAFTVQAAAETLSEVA
T2 sequence (P02769 25-607 limits assumed): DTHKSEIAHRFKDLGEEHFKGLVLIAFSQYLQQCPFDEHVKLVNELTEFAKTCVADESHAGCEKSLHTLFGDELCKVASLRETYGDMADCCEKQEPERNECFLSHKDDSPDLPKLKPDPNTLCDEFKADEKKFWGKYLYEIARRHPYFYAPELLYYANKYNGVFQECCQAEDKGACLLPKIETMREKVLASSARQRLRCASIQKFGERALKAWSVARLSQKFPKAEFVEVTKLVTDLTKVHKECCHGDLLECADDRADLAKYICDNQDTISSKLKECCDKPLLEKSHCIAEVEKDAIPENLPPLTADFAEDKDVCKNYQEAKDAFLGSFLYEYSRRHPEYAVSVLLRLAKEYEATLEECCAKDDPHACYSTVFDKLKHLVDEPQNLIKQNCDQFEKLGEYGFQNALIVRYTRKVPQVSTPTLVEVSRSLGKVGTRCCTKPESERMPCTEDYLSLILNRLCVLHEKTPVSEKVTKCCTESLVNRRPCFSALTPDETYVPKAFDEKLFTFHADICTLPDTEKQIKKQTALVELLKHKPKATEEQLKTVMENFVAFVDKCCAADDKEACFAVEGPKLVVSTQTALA
T4 sequence (Q04609 whole entry): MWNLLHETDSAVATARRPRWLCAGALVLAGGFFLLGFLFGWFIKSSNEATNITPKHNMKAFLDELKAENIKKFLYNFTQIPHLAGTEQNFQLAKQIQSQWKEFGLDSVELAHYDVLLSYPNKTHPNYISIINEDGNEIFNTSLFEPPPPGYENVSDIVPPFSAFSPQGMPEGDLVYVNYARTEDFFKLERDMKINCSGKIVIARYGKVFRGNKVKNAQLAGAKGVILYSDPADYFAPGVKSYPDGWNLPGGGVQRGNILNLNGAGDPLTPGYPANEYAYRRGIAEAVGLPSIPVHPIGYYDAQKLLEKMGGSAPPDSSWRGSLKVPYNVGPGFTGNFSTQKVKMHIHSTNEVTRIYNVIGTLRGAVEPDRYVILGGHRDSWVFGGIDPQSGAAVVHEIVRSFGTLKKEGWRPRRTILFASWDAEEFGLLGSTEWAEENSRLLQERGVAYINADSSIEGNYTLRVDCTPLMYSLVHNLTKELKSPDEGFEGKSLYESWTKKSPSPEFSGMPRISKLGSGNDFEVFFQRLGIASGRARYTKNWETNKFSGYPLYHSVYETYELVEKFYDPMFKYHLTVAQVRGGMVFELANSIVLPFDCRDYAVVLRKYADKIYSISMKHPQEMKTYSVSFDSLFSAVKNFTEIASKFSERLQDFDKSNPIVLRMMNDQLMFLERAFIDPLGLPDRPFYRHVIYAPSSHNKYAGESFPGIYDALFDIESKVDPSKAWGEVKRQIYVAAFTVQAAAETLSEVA
T3 sequence (P02786 89-760 limits assumed): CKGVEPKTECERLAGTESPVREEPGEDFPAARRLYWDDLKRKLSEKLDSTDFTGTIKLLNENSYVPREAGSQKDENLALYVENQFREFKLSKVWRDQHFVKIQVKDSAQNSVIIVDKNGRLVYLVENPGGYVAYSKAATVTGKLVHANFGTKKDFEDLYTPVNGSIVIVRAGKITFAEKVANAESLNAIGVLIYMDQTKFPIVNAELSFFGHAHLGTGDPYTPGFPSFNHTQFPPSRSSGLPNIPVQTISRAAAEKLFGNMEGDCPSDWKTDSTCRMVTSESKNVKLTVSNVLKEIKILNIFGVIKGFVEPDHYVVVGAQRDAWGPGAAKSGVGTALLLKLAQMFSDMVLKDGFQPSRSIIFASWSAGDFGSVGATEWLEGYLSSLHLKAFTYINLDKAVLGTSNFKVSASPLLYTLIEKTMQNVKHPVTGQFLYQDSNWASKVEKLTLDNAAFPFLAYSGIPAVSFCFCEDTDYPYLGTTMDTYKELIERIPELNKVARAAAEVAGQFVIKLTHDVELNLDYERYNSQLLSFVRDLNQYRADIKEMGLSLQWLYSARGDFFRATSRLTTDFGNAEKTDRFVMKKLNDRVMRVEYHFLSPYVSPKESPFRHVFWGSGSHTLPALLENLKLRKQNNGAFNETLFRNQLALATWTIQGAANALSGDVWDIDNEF
T5 sequence (Q04609 44-750 limits assumed): as the sequence (Q04609 44-750 limits assumed) above

B1: phage-2 (M13 phage displaying PSMA ligand 2 as a fusion to P8) (peptide)
chain: SECVEVFQNSCDW
modifications: not fully specified; cysteine pairing not given here; also: displayed on M13 phage as fusion to P8 coat protein
notes: Whole M13 virion in the assay (free in ELISA, embedded in a PEDOT film for impedance sensing); also called peptide 2; peptide-2; not shown: M13 major coat protein P8, 50 amino acid residues; NCBI GI:402239556 named in an embodiment
With B1 the Kd [1] was 54 nM, the “EC50 (read off the curve)” value [2] was ~0.008 nM and the binding result (bovine serum albumin [3]) was “no binding (tested: 5 nM)”.

B2: phage-2 wrapped with KCS-2 (peptide)
chain: SECVEVFQNSCDW
peptide 1: Pent4ynoyl-KKKKKKKKKKKKKK-NH2
peptide 2: {Butanoyl(4-N3)}-KKKSECVEVFQNSCDW-NH2
modifications: not fully specified; cysteine pairing not given here; also: KCS-2 wrapper held on P8 coat electrostatically, triazole to a chain's N-terminus
notes: Whole M13 virion; the KCS-2 wrapper (K14 clicked to K3-ligand 2) is held on the P8 coat electrostatically, not covalently; also called Phage with chemically and genetically encoded ligands; not shown: M13 major coat protein P8, 50 amino acid residues; NCBI GI:402239556 named in an embodiment
With B2 the “fold higher affinity than phage-2 without the ligand wrapper” value [4] was ~50 fold and the binding result (bovine serum albumin [5]) was “no binding (tested: 5 nM)”.

B3: phage-2 wrapped with a 1:1 (w/w) mixture of KCS-2 and KCS-1 (peptide)
chain: SECVEVFQNSCDW
peptide 1: Pent4ynoyl-KKKKKKKKKKKKKK-NH2
peptide 2: {Butanoyl(4-N3)}-KKKCALCEFLG-NH2
peptide 3: {Butanoyl(4-N3)}-KKKSECVEVFQNSCDW-NH2
modifications: cysteine pairing not given here; also: K14 chains clicked to ligand chains, triazole to a chain's N-terminus
notes: Whole M13 virion with both wrappers held electrostatically on the coat; also called 1:1 mixture of KCS-1 and KCS-2 wrapped on the surface of phage-2; not shown: M13 major coat protein P8, 50 amino acid residues; NCBI GI:402239556 named in an embodiment
B3: no binding (tested: 5 nM) (bovine serum albumin [6]).

B4: phage-2 wrapped with KCS-1 (peptide)
chain: SECVEVFQNSCDW
peptide 1: Pent4ynoyl-KKKKKKKKKKKKKK-NH2
peptide 2: {Butanoyl(4-N3)}-KKKCALCEFLG-NH2
modifications: not fully specified; cysteine pairing not given here; also: KCS-1 wrapper held on P8 coat electrostatically, triazole to a chain's N-terminus
notes: Whole M13 virion (free in ELISA, embedded in a PEDOT film for impedance sensing); the KCS-1 wrapper is held on the P8 coat electrostatically; also called Phage-2 film wrapped with KCS-1; not shown: M13 major coat protein P8, 50 amino acid residues; NCBI GI:402239556 named in an embodiment
With B4 the Kd [7] was 33 nM, the binding result (transferrin receptor) was “no binding” and the “fold higher apparent affinity than phage-2 wrapped with KCS-2” value [8] was 4 fold. The “fold ΔR/Ro relative to films with unwrapped phage-2” value [9] was 3 fold and the binding result (bovine serum albumin [6]) was “no binding (tested: 5 nM)”.

B5: phage wrapped with P100NSP-2 (peptide)
peptide 1: SECVEVFQNSCDW
peptide 2: KKKKKKKKKKKKKKC
chain: AEGDDPAKAAFNSLQASATEYIGYAWAMVVVIVGATIGIKLFKKFTSKAS
modifications: Cys thiol joined to the maleimide of the PEG100 ligand; C-terminal carboxamide; N-terminal azide clicked to pentynoic acid, then HBTU-coupled non-specifically (carboxylates incl. side chains, Asp12 may be partly modified) to Mal-PEG100-NH2; C-terminal carboxamide
notes: mature; Whole M13 virion; K14-Cys held electrostatically on P8
B5: binds [10].

B6: phage wrapped with P100SP-2 (peptide)
peptide 1: SECVEVFQNSCDW
peptide 2: KKKKKKKKKKKKKKC
chain: B5 chain
modifications: Cys thiol joined to the maleimide of the PEG100 ligand; C-terminal carboxamide; N-terminal azide clicked to Mal-PEG100-alkyne (specific attachment); C-terminal carboxamide
notes: as for B5
B6: binds [11].

B7: Stop-4 phage (phagemid packaged by helper phage, no ligand displayed) (other, M13 bacteriophage, UniProt P69541 24-73, looked up)
chain: B5 chain
modifications: not fully specified
notes: mature; also called control phage
B7: no binding (tested: last point just right of the 10 nM tick) [12]; no binding [13].

B8: phage wrapped with P100SP-P4-2 (peptide)
peptide 1: SECVEVFQNSCDW
peptide 2: KKKKKKKKKKKKKKC
chain: B5 chain
modifications: Cys thiol joined to the maleimide of the PEG100 ligand; C-terminal carboxamide; N-terminal azido-PEG4-carboxylic acid, clicked to Mal-PEG100-alkyne (specific attachment); C-terminal carboxamide
notes: as for B5
B8: binds [11].

B9: phage wrapped with P100NSP-P4-2 (peptide)
peptide 1: SECVEVFQNSCDW
peptide 2: KKKKKKKKKKKKKKC
chain: B5 chain
modifications: Cys thiol joined to the maleimide of the PEG100 ligand; C-terminal carboxamide; N-terminal azido-PEG4-carboxylic acid, clicked to pentynoic acid, then HBTU-coupled non-specifically to Mal-PEG100-NH2; C-terminal carboxamide
notes: as for B5
B9: binds [11].

B10: KO7 helper phage (other, M13 bacteriophage, UniProt P69541 24-73, looked up)
chain: B5 chain
notes: mature; Helper phage lacking a genetically encoded PSMA ligand; bought from GE Healthcare
B10: no binding (tested: about 5 nM) [14].
